Experimental data reported in patent US20230303711A1.

Assays:
[1] = target: Fc-tagged human CD47-ECD protein (CD47-Fc) (human); assay: ELISA on coated human CD47-Fc; row printed as Affinity (µg/mL)
[2] = target: His-tagged human CD47-ECD protein (CD47-His) (human) (UniProt Q08722); assay: competitive ELISA on coated CD47-His (2 µg/mL); blocked ligand SIRPα-Fc-Bio (0.1 µg/mL), HRP-streptavidin, OD450
Chain of His-tagged human CD47-ECD protein (CD47-His) (human) (Q08722 other isoform, or with tags, fused parts or gaps): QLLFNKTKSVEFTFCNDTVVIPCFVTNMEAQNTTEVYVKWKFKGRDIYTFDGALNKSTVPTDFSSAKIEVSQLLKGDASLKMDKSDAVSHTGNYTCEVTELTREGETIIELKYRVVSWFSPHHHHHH

Chain of Fc-tagged human CD47-ECD protein (CD47-Fc) (human) (chain, as listed by the source limits assumed): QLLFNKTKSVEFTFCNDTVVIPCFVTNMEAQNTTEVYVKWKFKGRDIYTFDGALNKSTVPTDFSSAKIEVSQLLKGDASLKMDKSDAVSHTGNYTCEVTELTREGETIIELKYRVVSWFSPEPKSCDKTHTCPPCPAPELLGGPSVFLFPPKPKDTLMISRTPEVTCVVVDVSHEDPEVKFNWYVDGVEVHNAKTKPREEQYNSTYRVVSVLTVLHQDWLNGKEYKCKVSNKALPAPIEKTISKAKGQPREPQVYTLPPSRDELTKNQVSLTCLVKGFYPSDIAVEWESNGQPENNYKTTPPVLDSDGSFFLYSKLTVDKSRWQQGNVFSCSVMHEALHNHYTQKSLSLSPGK

| Substance | EC50 [1] | parameter C of the printed 4-parameter fit (OD does not fall, A 1.192, D 1.394; not an IC50) [2] | parameter C of the printed 4-parameter fit (OD does not fall, A 1.343, D 8.036; not an IC50) [2] | parameter C of the printed 4-parameter fit (OD only falls from A 1.633 to D 1.446; not an IC50) [2] |
| --- | --- | --- | --- | --- |
| Antibody Hu5F9-G4 | 0.092 µg/mL | – | – | – |
| IgG (antibody) | – | 5.76 µg/mL | 13400 µg/mL | 1.95 µg/mL |
